Assay results reported in the supplement of paper PMC9876800.

System: peptide library, one residue held at a place counted from the S/T acceptor
Assay: relative phosphorylation of the sub-library (ratio to the mean residue at this position); higher = residue favoured
Procedure, shortened: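 Relative sub-library phosphorylation, a ratio to the mean residue at that position, was obtained by phosphorimaging and densitometry of spots on streptavidin membranes. Before capture, purified recombinant kinases were incubated for 90 min under kinase-specific conditions with 50 μM biotinylated degenerate peptide sub-libraries and 50 μM ATP spiked with γ-32P-ATP. Each sub-library fixed one residue at one position around a central Ser/Thr.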

Sequence of VRK1, construct: Full length, human (Q99986 whole entry, looked up): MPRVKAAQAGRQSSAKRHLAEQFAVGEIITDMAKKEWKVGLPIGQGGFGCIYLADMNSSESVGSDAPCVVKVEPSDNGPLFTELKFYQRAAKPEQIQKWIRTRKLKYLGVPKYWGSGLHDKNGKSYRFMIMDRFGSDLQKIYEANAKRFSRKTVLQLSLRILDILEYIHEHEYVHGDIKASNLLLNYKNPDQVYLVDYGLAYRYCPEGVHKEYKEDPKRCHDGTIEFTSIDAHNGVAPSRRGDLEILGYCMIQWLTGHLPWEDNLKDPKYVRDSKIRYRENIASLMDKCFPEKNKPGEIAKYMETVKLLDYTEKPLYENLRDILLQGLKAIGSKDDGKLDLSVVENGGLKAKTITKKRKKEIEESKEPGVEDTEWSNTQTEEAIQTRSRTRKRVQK
Sequence of VRK2, construct: Full length, human (Q86Y07 whole entry, looked up): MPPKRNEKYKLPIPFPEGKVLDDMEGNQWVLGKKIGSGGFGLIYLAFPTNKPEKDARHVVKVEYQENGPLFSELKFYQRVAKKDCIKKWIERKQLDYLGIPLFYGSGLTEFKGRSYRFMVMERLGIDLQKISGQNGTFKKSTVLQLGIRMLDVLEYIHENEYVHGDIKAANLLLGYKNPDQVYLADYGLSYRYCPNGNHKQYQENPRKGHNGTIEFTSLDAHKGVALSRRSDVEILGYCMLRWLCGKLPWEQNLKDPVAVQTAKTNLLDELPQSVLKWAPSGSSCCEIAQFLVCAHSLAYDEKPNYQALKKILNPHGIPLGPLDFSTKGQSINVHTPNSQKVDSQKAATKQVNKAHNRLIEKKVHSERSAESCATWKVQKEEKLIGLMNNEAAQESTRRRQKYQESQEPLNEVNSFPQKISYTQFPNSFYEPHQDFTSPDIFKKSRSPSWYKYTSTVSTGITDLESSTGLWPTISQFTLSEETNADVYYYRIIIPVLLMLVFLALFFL
Sequence of WNK4, construct: aa1-444, human (Q96J92 1-444, looked up): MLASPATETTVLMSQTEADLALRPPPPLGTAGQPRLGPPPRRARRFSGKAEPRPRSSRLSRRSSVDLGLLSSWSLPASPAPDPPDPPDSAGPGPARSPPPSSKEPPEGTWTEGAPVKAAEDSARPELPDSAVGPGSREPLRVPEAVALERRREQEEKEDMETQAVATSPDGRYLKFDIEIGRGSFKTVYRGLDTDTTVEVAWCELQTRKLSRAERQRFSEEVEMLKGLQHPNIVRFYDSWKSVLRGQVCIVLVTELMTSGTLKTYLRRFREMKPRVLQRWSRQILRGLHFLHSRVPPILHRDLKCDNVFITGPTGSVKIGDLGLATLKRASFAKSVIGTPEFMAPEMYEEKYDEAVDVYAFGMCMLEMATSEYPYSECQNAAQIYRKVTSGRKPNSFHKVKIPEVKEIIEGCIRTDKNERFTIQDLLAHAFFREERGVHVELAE

VRK1, construct: Full length, human (from UniProt Q99986)
relative phosphorylation
Details | at +1 | at +2 | at +3 | at +4 | at -1 | at -2 | at -3 | at -4 | at -5
A fixed | 0.79 | 0.924 | 1.23 | 0.978 | 0.758 | 1.02 | 1.09 | 1.03 | 1.08
D fixed | 0.363 | 0.406 | 0.525 | 0.96 | 0.661 | 0.802 | 0.824 | 0.886 | 0.865
E fixed | 0.548 | 0.393 | 0.461 | 0.739 | 0.608 | 0.645 | 0.81 | 0.927 | 0.837
F fixed | 0.972 | 0.746 | 0.877 | 1.01 | 1.04 | 0.8 | 0.902 | 1.02 | 1.01
G fixed | 0.532 | 0.549 | 1.7 | 1.31 | 0.648 | 2.31 | 1.45 | 1.34 | 1.34
H fixed | 0.951 | 0.83 | 1.79 | 1.03 | 1.17 | 1.21 | 1.15 | 1.15 | 1.01
I fixed | 0.921 | 1.63 | 0.573 | 0.884 | 1.31 | 0.622 | 0.772 | 0.859 | 0.822
K fixed | 1.4 | 1.45 | 0.815 | 0.87 | 0.984 | 0.759 | 1.02 | 0.865 | 0.88
L fixed | 0.642 | 1.22 | 0.637 | 0.985 | 1.33 | 0.764 | 0.745 | 0.796 | 0.646
M fixed | 1.11 | 1.67 | 0.865 | 1.06 | 1.06 | 0.946 | 0.862 | 0.916 | 0.835
N fixed | 0.724 | 0.64 | 1.65 | 0.997 | 0.843 | 1.38 | 0.982 | 1.06 | 0.919
P fixed | 0.305 | 0.423 | 0.456 | 0.688 | 0.738 | 1.25 | 1.28 | 1.02 | 1.21
Q fixed | 1.4 | 1.34 | 0.988 | 0.952 | 0.977 | 1.19 | 1.03 | 0.962 | 1.01
R fixed | 2.6 | 1.2 | 1.22 | 1.33 | 1.03 | 1.01 | 1.3 | 0.978 | 1.23
V fixed | 1.39 | 2.09 | 0.723 | 0.75 | 1.53 | 0.616 | 0.848 | 0.97 | 1.02
W fixed | 1.15 | 0.695 | 1.2 | 1.32 | 1.02 | 0.815 | 0.931 | 1.14 | 1.13
Y fixed | 1.19 | 0.795 | 1.29 | 1.14 | 1.3 | 0.856 | 0.999 | 1.07 | 1.16
pThr fixed | 0.771 | 0.821 | 0.698 | 0.728 | 0.751 | 0.781 | 0.938 | 0.862 | 0.958
pTyr fixed | 0.752 | 0.601 | 0.942 | 1.37 | 1.03 | 0.723 | 1 | 0.967 | 1.05

VRK2, construct: Full length, human (from UniProt Q86Y07)
relative phosphorylation
Details | at +1 | at +2 | at +3 | at +4 | at -1 | at -2 | at -3 | at -4 | at -5
A fixed | 0.906 | 0.925 | 0.998 | 1.07 | 0.943 | 1 | 1.06 | 1.12 | 1.08
D fixed | 0.579 | 0.622 | 0.675 | 0.977 | 0.788 | 0.836 | 0.812 | 0.845 | 0.97
E fixed | 0.659 | 0.575 | 0.629 | 0.791 | 0.67 | 0.804 | 0.829 | 0.917 | 0.862
F fixed | 0.883 | 1.23 | 1.05 | 1.04 | 0.86 | 0.978 | 0.971 | 0.957 | 0.974
G fixed | 1.02 | 1.11 | 1.15 | 1.17 | 0.959 | 1.58 | 1.23 | 1.24 | 1.15
H fixed | 0.842 | 0.985 | 1.28 | 1.14 | 1.39 | 1.04 | 1.12 | 1.04 | 1.17
I fixed | 1.23 | 1.34 | 0.907 | 0.881 | 1.03 | 0.824 | 0.927 | 0.875 | 0.866
K fixed | 0.949 | 0.924 | 0.875 | 0.887 | 1.04 | 0.919 | 0.881 | 0.945 | 0.979
L fixed | 0.796 | 1.33 | 0.896 | 0.937 | 1.15 | 1.01 | 0.933 | 0.875 | 0.866
M fixed | 1.01 | 1.27 | 0.872 | 0.954 | 1.02 | 1.16 | 0.98 | 0.96 | 0.885
N fixed | 0.759 | 0.726 | 1.05 | 0.979 | 0.956 | 0.966 | 0.985 | 0.917 | 0.906
P fixed | 1.15 | 0.703 | 0.759 | 1.03 | 1.1 | 1.08 | 1.27 | 1.22 | 1.16
Q fixed | 1.13 | 0.873 | 0.875 | 0.905 | 0.914 | 0.969 | 0.878 | 0.887 | 0.922
R fixed | 1.57 | 0.836 | 1.37 | 0.937 | 1.06 | 1.06 | 1.06 | 1.04 | 1.05
V fixed | 1.53 | 1.07 | 0.935 | 0.912 | 1.22 | 0.877 | 0.936 | 0.996 | 0.974
W fixed | 1.04 | 1.3 | 1.6 | 1.32 | 0.876 | 0.964 | 1.06 | 1.11 | 1.07
Y fixed | 0.948 | 1.17 | 1.09 | 1.07 | 1.03 | 0.935 | 1.06 | 1.06 | 1.11
pThr fixed | 0.648 | 0.686 | 0.733 | 1.08 | 0.83 | 0.792 | 0.923 | 1 | 1.01
pTyr fixed | 0.826 | 0.883 | 0.914 | 1.4 | 0.861 | 0.8 | 0.982 | 1.02 | 0.981

WNK4, construct: aa1-444, human (from UniProt Q96J92)
relative phosphorylation
Details | at +1 | at +2 | at +3 | at +4 | at -1 | at -2 | at -3 | at -4 | at -5
A fixed | 0.658 | 0.979 | 0.693 | 0.885 | 1.14 | 1.49 | 0.929 | 0.894 | 0.916
D fixed | 0.249 | 0.57 | 0.62 | 0.54 | 0.287 | 0.305 | 0.389 | 0.579 | 0.489
E fixed | 0.247 | 0.452 | 0.518 | 0.638 | 0.467 | 0.305 | 0.524 | 0.615 | 0.565
F fixed | 1.13 | 0.977 | 2.1 | 1.3 | 0.788 | 0.821 | 0.748 | 0.864 | 1.21
G fixed | 0.88 | 1.12 | 0.755 | 0.865 | 1.18 | 2.7 | 1.06 | 0.973 | 0.89
H fixed | 0.813 | 0.973 | 1.35 | 1.12 | 1.05 | 1.54 | 1.16 | 1.21 | 1.21
I fixed | 1.2 | 1.79 | 0.919 | 1.24 | 0.796 | 0.754 | 0.947 | 0.9 | 1.07
K fixed | 0.918 | 0.872 | 1.06 | 1.29 | 1.66 | 1.03 | 1.64 | 1.6 | 1.27
L fixed | 1.42 | 1.24 | 1.02 | 0.92 | 0.833 | 0.637 | 0.88 | 0.79 | 1.14
M fixed | 1.96 | 1.31 | 1.04 | 1.1 | 1.58 | 0.708 | 1.02 | 0.924 | 0.986
N fixed | 0.945 | 0.664 | 0.691 | 0.811 | 0.636 | 0.614 | 0.746 | 0.867 | 0.807
P fixed | 0.242 | 0.318 | 0.514 | 0.713 | 0.452 | 1.31 | 0.93 | 0.674 | 0.628
Q fixed | 1.17 | 0.522 | 0.565 | 0.673 | 0.952 | 0.573 | 0.741 | 0.88 | 0.639
R fixed | 1.87 | 2.16 | 1.22 | 1.42 | 2.68 | 1.74 | 2.66 | 2.19 | 1.7
V fixed | 0.973 | 1.16 | 0.848 | 0.969 | 0.812 | 0.972 | 0.959 | 0.877 | 0.891
W fixed | 0.975 | 0.85 | 1.63 | 1.32 | 0.637 | 0.662 | 0.709 | 1.04 | 1.25
Y fixed | 1.35 | 1.03 | 1.46 | 1.19 | 1.05 | 0.828 | 0.963 | 1.13 | 1.33
pThr fixed | 0.386 | 0.407 | 0.388 | 0.617 | 0.444 | 0.683 | 0.809 | 0.732 | 0.731
pTyr fixed | 0.565 | 0.537 | 0.612 | 0.674 | 0.727 | 0.471 | 0.708 | 0.527 | 0.764
